# From patent publication US20240239915A1 (Zymeworks, published 2024)
# T1: Recombinant Human Fc gamma RIIA/CD32a (H167) Protein (R&D Systems), His-tagged (human, UniProt P12318 34-218)
# T1 construct: also called human FcγRIIa (H167); hFcγRIIa (H167)
# T1 sequence: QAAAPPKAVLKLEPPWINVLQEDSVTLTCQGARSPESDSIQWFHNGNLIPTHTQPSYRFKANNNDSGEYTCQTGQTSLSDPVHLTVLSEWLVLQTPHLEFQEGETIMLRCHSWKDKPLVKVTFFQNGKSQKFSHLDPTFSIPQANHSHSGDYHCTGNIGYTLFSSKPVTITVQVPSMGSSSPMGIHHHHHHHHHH
# T2: Recombinant Cynomolgus Fc gamma RIIA/CD32a Protein (R&D Systems), His-tagged (cynomolgus)
# T2 construct: also called cynomolgus FcγRIIa; cFcγRIIa
# T2 chain: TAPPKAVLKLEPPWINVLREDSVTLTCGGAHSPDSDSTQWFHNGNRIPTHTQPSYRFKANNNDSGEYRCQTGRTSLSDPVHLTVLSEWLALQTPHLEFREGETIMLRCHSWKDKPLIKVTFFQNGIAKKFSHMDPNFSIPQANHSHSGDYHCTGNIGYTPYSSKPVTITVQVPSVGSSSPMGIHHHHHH
# T3: Recombinant Cynomolgus Fc gamma RIII/CD16 Protein (R&D Systems), His-tagged (cynomolgus, UniProt Q8SPW2 17-208)
# T3 construct: also called cynomolgus FcγRIII; cFcγRIII
# T3 chain: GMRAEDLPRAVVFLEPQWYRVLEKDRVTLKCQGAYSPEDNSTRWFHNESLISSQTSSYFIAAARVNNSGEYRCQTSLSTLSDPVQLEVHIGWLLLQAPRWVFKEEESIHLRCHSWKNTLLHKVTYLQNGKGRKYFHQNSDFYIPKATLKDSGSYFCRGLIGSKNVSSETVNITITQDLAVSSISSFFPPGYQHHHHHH
# T4: Recombinant Cynomolgus Fc gamma RIIB protein (R&D Systems), His-tagged (cynomolgus)
# T4 construct: also called cynomolgus FcγRIIb; cFcγRIIb
# T4 chain: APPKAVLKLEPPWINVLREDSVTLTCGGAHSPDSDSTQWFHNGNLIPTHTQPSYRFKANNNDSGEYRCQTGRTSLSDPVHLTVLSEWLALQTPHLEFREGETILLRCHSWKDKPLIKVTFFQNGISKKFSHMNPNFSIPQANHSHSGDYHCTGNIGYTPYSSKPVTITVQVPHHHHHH
# T5: Recombinant Human Fc gamma RIIIB/CD16b Protein (R&D Systems), His-tagged (human, UniProt O75015 20-208)
# T5 construct: also called human FcγRIIIb; hFcγRIIIb
# T5 chain: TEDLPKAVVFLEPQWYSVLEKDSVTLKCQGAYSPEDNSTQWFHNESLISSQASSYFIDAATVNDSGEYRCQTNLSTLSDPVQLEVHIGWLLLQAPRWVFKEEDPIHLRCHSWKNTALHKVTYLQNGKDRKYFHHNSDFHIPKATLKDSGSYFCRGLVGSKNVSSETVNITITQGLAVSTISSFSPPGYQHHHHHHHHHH
# T6: Recombinant Human Fc gamma RIIB/C (CD32b/c) Protein (R&D Systems), His-tagged (human, UniProt P31994 46-217)
# T6 construct: also called human FcγRIIb/c; hFcγRIIb/c
# T6 sequence: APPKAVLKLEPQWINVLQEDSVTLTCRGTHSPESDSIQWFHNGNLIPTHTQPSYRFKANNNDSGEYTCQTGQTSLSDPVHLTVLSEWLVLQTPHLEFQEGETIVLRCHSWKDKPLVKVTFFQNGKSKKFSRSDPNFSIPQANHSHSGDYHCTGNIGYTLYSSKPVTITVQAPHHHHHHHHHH
# Tests used:
# [1] = target: T7, human FcRn (human neonatal Fc receptor large subunit p51 and beta2-microglobulin), biotinylated (human, UniProt P55899 24-297; P61769 21-119, biotinylated (site not stated)); experiment: BLI (Octet RED384), biotinylated FcRn on streptavidin biosensor, binding at pH 6.0, dissociation at pH 7.4
# [2] = target: T7, human FcRn (human neonatal Fc receptor …); experiment: BLI (Octet RED384), biotinylated FcRn on streptavidin biosensor, binding and dissociation at pH 6.0
# [3] = target: T1, Recombinant Human Fc gamma RIIA/CD32a …; experiment: SPR (Biacore T200), RU at 4.7 µM antibody
# [4] = target: T8, Recombinant Human Fc gamma RI/CD64 Protein, CF (R&D Systems), His-tagged (human, UniProt P12314 16-288); experiment: SPR (Biacore T200), RU at 4.7 µM antibody
# T8 construct: also called human FcγRI; hFcγRI
# [5] = target: T2, Recombinant Cynomolgus Fc gamma …; experiment: SPR (Biacore T200); receptor immobilized directly on CM5 chip, antibody as analyte at 4.7 µM
# [6] = target: T3, Recombinant Cynomolgus Fc gamma …; experiment: as above
# [7] = target: T4, Recombinant Cynomolgus Fc gamma RIIB …; experiment: as above
# [8] = target: T5, Recombinant Human Fc gamma RIIIB/CD16b …; experiment: as above
# [9] = target: T1, Recombinant Human Fc gamma RIIA/CD32a …; experiment: as above
# [10] = target: T9, Recombinant Human Fc gamma RIIIA/CD16a protein (R&D Systems), His-tagged (human, UniProt P08637 17-208); experiment: as above
# T9 construct: also called human FcγRIIIa; hFcγRIIIa
# [11] = target: T6, Recombinant Human Fc gamma RIIB/C …; experiment: as above
# [12] = target: T10, Recombinant Human Fc gamma RIIIA/CD16a (V176F) Protein (R&D Systems), His-tagged (human, UniProt P08637 17-208); experiment: as above
# T10 construct: no further substitution applied; also called human FcγRIIIa (V176F); hFcγRIIIa (V176F)
# T10 sequence (P08637 other isoform, or with tags, fused parts or gaps V176F V176F): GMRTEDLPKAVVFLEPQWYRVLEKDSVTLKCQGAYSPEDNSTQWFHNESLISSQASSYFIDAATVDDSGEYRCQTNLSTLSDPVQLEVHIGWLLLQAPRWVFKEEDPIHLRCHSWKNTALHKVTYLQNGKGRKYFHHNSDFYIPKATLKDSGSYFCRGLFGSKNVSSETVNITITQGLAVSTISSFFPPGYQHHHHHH
# T7 sequence (P55899 24-297 limits assumed, chain 1 of 2): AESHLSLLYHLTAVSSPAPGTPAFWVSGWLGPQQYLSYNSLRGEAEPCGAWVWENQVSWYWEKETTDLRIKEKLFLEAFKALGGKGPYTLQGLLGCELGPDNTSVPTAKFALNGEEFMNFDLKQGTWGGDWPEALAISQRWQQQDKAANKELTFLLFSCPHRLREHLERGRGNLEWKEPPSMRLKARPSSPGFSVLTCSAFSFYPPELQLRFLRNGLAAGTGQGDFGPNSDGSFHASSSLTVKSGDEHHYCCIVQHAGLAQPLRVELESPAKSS
# T7 sequence (P61769 21-119 limits assumed, chain 2 of 2): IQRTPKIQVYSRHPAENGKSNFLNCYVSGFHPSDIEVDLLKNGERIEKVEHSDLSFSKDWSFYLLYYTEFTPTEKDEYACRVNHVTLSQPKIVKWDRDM
# T8 sequence (P12314 other isoform, or with tags, fused parts or gaps): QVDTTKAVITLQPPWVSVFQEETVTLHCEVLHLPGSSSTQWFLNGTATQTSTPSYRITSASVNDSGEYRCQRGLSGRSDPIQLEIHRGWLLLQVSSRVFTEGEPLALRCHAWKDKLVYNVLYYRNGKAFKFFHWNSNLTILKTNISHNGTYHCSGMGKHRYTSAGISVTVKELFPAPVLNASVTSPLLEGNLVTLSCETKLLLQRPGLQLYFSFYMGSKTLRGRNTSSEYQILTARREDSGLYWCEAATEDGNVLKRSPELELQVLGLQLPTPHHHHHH
# T9 sequence (P08637 other isoform, or with tags, fused parts or gaps): as the sequence (P08637 other isoform, or with tags, fused parts or gaps V176F V176F) above, with F160V counted along it
binder,measurement,setting,value
"L234A/L235A/D265G (LALA-DG) variant of IgG1 WT of the anti-EGFR antibody panitumumab (antibody, Mutations in both CH2 domains; positions are EU numbers) heavy: QVQLQESGPGLVKPSETLSLTCTVSGGSVSSGDYYWTWIRQSPGKGLEWIGHIYYSGNTNYNPSLKSRLTISIDTSKTQFSLKLSSVTAADTAIYYCVRDRVTGAFDIWGQGTMVTVSSASTKGPSVFPLAPSSKSTSGGTAALGCLVKDYFPEPVTVSWNSGALTSGVHTFPAVLQSSGLYSLSSVVTVPSSSLGTQTYICNVNHKPSNTKVDKRVEPKSCDKTHTCPPCPAPEAAGGPSVFLFPPKPKDTLMISRTPEVTCVVVGVSHEDPEVKFNWYVDGVEVHNAKTKPREEQYNSTYRVVSVLTVLHQDWLNGKEYKCKVSNKALPAPIEKTISKAKGQPREPQVYTLPPSREEMTKNQVSLTCLVKGFYPSDIAVEWESNGQPENNYKTTPPVLDSDGSFFLYSKLTVDKSRWQQGNVFSCSVMHEALHNHYTQKSLSLSPGK light: not shown",koff,[1],2.2 s⁻¹
same,Kd,[2],5.8 nM
same,RU value relative to the other variants,[3],≤ 0.5 fold
same,RU value relative to the LALA-DA variant,[4],~0.1 fold
same,binding response (RU),[5],19 RU
same,binding response (RU),[6],3.8 RU
same,binding response (RU),[7],89 RU
same,binding response (RU),[8],-0.3 RU
same,binding response (RU),[9],8.8 RU
same,binding response (RU),[10],-2.7 RU
same,binding response (RU),[11],15 RU
same,binding response (RU),[12],-4.4 RU
